The values below come from PMC8146696, “Live-Cell Analysis of Human Cytomegalovirus DNA Polymerase Holoenzyme Assembly by Resonance Energy Transfer Methods” (Microorganisms, 2021).

Substitutions are numbered along the chain they refer to. Names and notes keep the numbering of the source.

B1: HCMV DNA polymerase processivity factor ppUL44, UL44(2–433), wild type (natural protein)
chain: DRKTRLSEPPTLALRLKPYKTAIQQLRSVIRALKENTTVTFLPTPSLILQTVRSHCVSKITFNSSCLYITDKSFQPKTINNSTPLLGNFMYLTSSKDLTKFYVQDISDLSAKISMCAPDFNMEFSSACVHGQDIVRESENSAVHVDLDFGVVADLLKWIGPHTRVKRNVKKAPCPTGTVQILVHAGPPAIKFILTNGSELEFTANNRVSFHGVKNMRINVQLKNFYQTLLNCAVTKLPCTLRIVTEHDTLLYVASRNGLFAVENFLTEEPFQRGDPFDKNYVGNSGKSRGGGGGGGSLSSLANAGGLHDDGPGLDNDLMNEPMGLGGLGGGGGGGGKKHDRGGGGGSGTRKMSSGGGGGDHDHGLSSKEKYEQHKITSYLTSKGGSGGGGGGGGGGLDRNSGNYFNDAKEESDSEDSVTFEFVPNTKKQKCG
notes: also called YFP-UL44; CFP-UL44; source: HEK293T, transiently transfected, in cells; YFP-UL44 also stably expressed in HEK293A (lentiviral transduction, puromycin); RLuc-UL44 also stably expressed in HEK293A clone 1B2 (G418); not shown: YFP (acceptor copy) or CFP (FRET donor copy) or RLuc (BRET donor copy), N-terminal, kept
B2: ppUL44 UL44(2–433) I135A (natural protein)
chain: B1 chain with I134A
notes: source: HEK293T, transiently transfected, in cells; not shown: YFP (acceptor copy) or RLuc (BRET donor copy), N-terminal, kept
B3: ppUL44 UL44(2–433) L86A/L87A (natural protein)
chain: B1 chain with L85A, L86A
notes: source: HEK293T, transiently transfected, in cells; not shown: YFP (acceptor copy) or CFP (FRET donor copy) or RLuc (BRET donor copy), N-terminal, kept
B4: HCMV DNA polymerase catalytic subunit pUL54, C-terminal domain UL54(1125–1242) (domain or fragment)
chain: VSRSDAIDGTDDDADGGGVEESNRRGGEPAKKRARKPPSAVCNYEVAEDPSYVREHGVPIHADKYFEQVLKAVTNVLSPVFPGGETARKDKFLHMVLPRRLHLEPAFLPYSVKAHECC
notes: also called CFP-UL54(1125–1242); RLuc-UL54; source: HEK293T, transiently transfected, in cells; not shown: CFP (FRET) or RLuc (BRET), N-terminal, kept
B5: FLAG-tagged ppUL44 (natural protein)
chain: MDRKTRLSEPPTLALRLKPYKTAIQQLRSVIRALKENTTVTFLPTPSLILQTVRSHCVSKITFNSSCLYITDKSFQPKTINNSTPLLGNFMYLTSSKDLTKFYVQDISDLSAKISMCAPDFNMEFSSACVHGQDIVRESENSAVHVDLDFGVVADLLKWIGPHTRVKRNVKKAPCPTGTVQILVHAGPPAIKFILTNGSELEFTANNRVSFHGVKNMRINVQLKNFYQTLLNCAVTKLPCTLRIVTEHDTLLYVASRNGLFAVENFLTEEPFQRGDPFDKNYVGNSGKSRGGGGGGGSLSSLANAGGLHDDGPGLDNDLMNEPMGLGGLGGGGGGGGKKHDRGGGGGSGTRKMSSGGGGGDHDHGLSSKEKYEQHKITSYLTSKGGSGGGGGGGGGGLDRNSGNYFNDAKEESDSEDSVTFEFVPNTKKQKCG
notes: also called FLAG-UL44; pDESTnFLAG-UL44; source: HEK293T or HEK293A-derived cell lines, transiently transfected, in cells

For data set [1], the target named is ppUL44 UL44(2–433) ΔNLS (K428V/K429A/K431) (human cytomegalovirus (HCMV)) (UniProt P16790). In words: FRET or BRET; BRET saturation in living HEK293T cells; fixed RLuc donor plasmid, increasing YFP acceptor plasmid (0-500 ng); one-site hyperbola of BRET ratio against YFPnet/RLuc gives B50 (relative affinity). In general terms: In BRET a luciferase serves as donor, and the signal depends on an acceptor being close.

The target of data set [2] is ppUL44 UL44(2–433) Δloop (R165G/K167N/K168G) (human cytomegalovirus (HCMV)) (UniProt P16790). The description is as above.
Data set [3] has as its target UL44Δ290 1-290 (Human cytomegalovirus) (UniProt P16790). Briefly: gel filtration. The conditions noted are these: cited from earlier work.
Data set [4] deals with pUL54 C-terminal 20 aa C-terminal 20 aa (Human cytomegalovirus) (UniProt P08546). The conditions noted are these: cited from earlier work.
Data set [5] deals with the molecule itself. Briefly: FRET or BRET; BRET at one donor/acceptor ratio in living HEK293T cells; RLuc fusion donor with or without YFP-UL44 acceptor, both transient; 48 h post transfection, cells in PBS, coelenterazine 5 uM.
Data set [6] concerns the molecule itself. Briefly: FRET or BRET; BRET in monoclonal HEK293A lines (from clone 1B2) stably expressing both YFP-UL44 and RLuc-UL44.
Data set [7] concerns the molecule itself. Briefly: FRET or BRET; BRET saturation in living HEK293T cells; fixed RLuc donor plasmid, increasing YFP acceptor plasmid (0-500 ng); one-site hyperbola of BRET ratio against YFPnet/RLuc gives B50 (relative affinity).
Data set [8] concerns the target B3. The description is as above. The conditions noted are these: partners not purified.
Data set [9] has as its target B1. Described as above. Conditions: partners not purified.
The data set “ppUL44 UL44(2–433) I135A” deals with B2. Described as above. Conditions: partners not purified.
The target of data set [10] is B4. Briefly: FRET or BRET; BRET inhibition, system 1: HEK293T transiently expressing RLuc donor and YFP-UL44 acceptor at about 50% of BRETmax, with increasing amounts of pDESTnFLAG-UL44 or pDESTnFLAG-UL42. Conditions: partners not purified.

With “ppUL44 UL44(2–433) ΔNLS (K428V/K429A/K431) (from UniProt P16790 2-433) (natural protein)”, the B50 in data set [1] worked out at 11.2.
“ppUL44 UL44(2–433) Δloop (R165G/K167N/K168G) (from UniProt P16790 2-433) (natural protein)”: in [2], the B50 came out at 12.6.
For “HCMV DNA polymerase catalytic subunit pUL54, C-terminal domain UL54(1125–1242) (from UniProt P08546 1125-1242) (domain or fragment)”, the B50 in data set [2] worked out at 34.4; in data set [1], 15.1.
For the molecule UL44Δ290 1-290 (from UniProt P16790), the figures for the Kd in [3] and in [4] were 250 nM and 700 nM, respectively.
With B1, the results for the BRET ratio in data set [5] and in [6] were 0.36 ± 0.1 and 0.17, respectively. Moreover, the B50 in data set [7] is 19.
Turning to B2, the B50 in [7] stood at 25.5.
Still for that read-out and setting: next, B3: 73.7.
Consider B4, for which the B50 in data set [8] stood at 11.5; in [9], 20; with ppUL44 UL44(2–433) I135A, 81.2.
Take B5: the “percent inhibition of the RLuc-UL54/YFP-UL44 BRET ratio” value in data set [10] is around 40%.

One may read the Kd as the concentration at which binding is half-saturated.
